# Assay results: patent US11517583B2, “Trans-splicing RNA (tsRNA)” (NATIONAL UNIVERSITY OF SINGAPORE, priority 2016, dated 2022)
# Legend:
# [1] = tested on: AFP pre-mRNA (AFP_E3-E6 mini-gene); assay: real-time RT-PCR (TaqMan) quantification of trans-splicing towards over-expressed AFP mini-gene in HepG2 cells; assay type: cell-based, human; details: 3′ER, HepG2 co-transfected with AFP mini-gene vector, 24 hours post transfection
# Experimental: Transfection of plasmid DNAs: HepG2 cells were transfected at ˜70-90% confluency in a 6-well plate for Western blotting, 12-well for FACS analyses and 24-well plate for all other analyses using either Lipofectamine 3000 (for FACS studies only) or Lipofectamine 2000, (Life Technologies) according to manufacturer's protocol. A total of 1 μg DNA was co-transfected or transfected in a 24-well plate format (500 ng:500 ng of ts construct: AFP_E3_E6 minigene) in over-expression studies and 1 μg of ts constructs only in endogenous studies. For 12-well and 6-well formats, the amount of total DNA was scaled up to 2 μg and 4 μg respectively. For FACS experiments, either 500 ng of pEGFP-C2 plasmid was co-transfected along with the ts and AFP mini-gene vectors to perform experiments with some 3′ER and 5′ER plasmids and dumbbells, or the GFP infused ts vectors were used along with/without AFP mini-gene for over-expression and endogenous studies respectively.
# Total RNA Isolation: RNA was isolated 24 hours post-transfection using RNeasy plus kit (Qiagen) following the manufacturer's protocol. RNA concentrations were measured using NanoDrop 2000.
# cDNA conversion and real-time RT-PCR: 500 ng RNA from all samples was converted into cDNA using the First Strand SuperScript RTIII (Invitrogen) kit with 200 ng of random hexamers and 10 uM of dNTPs. The reaction conditions were 25° C. for 5 min, followed by 50° C. for 2 h and enzyme inactivation at 70° C. for 15 min. 20 ng of cDNA was used as template for real time RT-PCR. TaqMan quantification was performed in ABI 7900HT of the cDNAs by designing specific probe and primer sets for each cis- and trans-splicing detection. One set of probes were designed in the AFP regions; namely AFP probe exon 5 and AFP probe exon 4 to detect 3′ER and 5′ER cis and trans-splicing respectively. Primers to detect 3′ER cis-splicing along with AFP probe were FP afp exon 5 (set1) and RP afp exon 6 and for 3′ER trans-splicing were FP afp exon 5 (set1) and RP HSVtk. Primers to detect 5′ER cis-splicing along with AFP probe were FP afp exon 3 and RP afp exon 4 (set1) and for 5′ER trans-splicing were FP HSVtk (set1) and RP afp exon 4 (set1). Another set of probes were designed in the distal HSVtk region to detect 3′ER, named HSVtk probe for 3′ER and proximal HSVtk region to detect 5′ER, named HSVtk probe for 5′ER trans-splicing alone. The primers to detect 3′ER trans-splicing along with HSVtk probes were FP afp exon 5 (set2) and RP HSVtk. Primers to detect 5′ER trans-splicing along with HSVtk probes were FP HSVtk (set2) and RP afp exon 4 (set2). The number of cycles in over-expression studies and endogenous studies were 40 and 50 respectively. RT-PCR: Reverse transcription PCR was performed on the cDNA samples using Taq DNA polymerase (Fermentas) with […] of two-step PCR (30+30 cycles or 35+35 cycles) to detect 3′ and 5′ cis and trans-splicing and the bands were visualized on a 1% agarose gel. The primers used to detect 3′ER cis-splicing and mock were FP afp exon 5 (set1) and RP afp exon 6, to detect 3′ER trans-splicing were FP afp exon 5 (set1) and RP HSVtk. To detect 5′ER cis-splicing and mock were primers FP afp exon 3 and RP afp exon 4 (set1), to detect 5′ER trans-splicing were primers FP HSVtk (set1) and RP afp exon 4 (set1). […]
# [2] = tested on: HHRz cleavage motif at tsRNA 3′ end; assay: stem-loop primer based rt-RT-PCR of hammerhead ribozyme (HHRz) cleavage; assay type: cell-based
# Source text: FIG. 3 Improved stability at 3′ end of the RNA improves 5′ trans-splicing in correlation with cleavage of hammerhead ribozyme. […] 145. The conserved motifs of stem Ia, Ib and II are highlighted in boxes and stem Ill is designed as a perfect complement to the 3′ end of the ΔBD to make the HH Rz structure. Cleavage motif GUC is shown with a scissor icon. […] R2, correlation coefficient. n=3, linear regression analysis.
# That was surprising as the uncleaved RNA comprises a polyA tail and is expected to be exported to the cytoplasm thereby lowering its nuclear concentration and the rate of trans-splicing. We investigated HHRz cleavage by quantifying the cleaved RNA 3′ end using stem-loop primer based rt-RT-PCR (FIG. 3a). This method was proven to efficiently discriminate between perfect primer-matching and extended RNA 3′ ends. The observed 6.2 cycle difference indicated a ribozyme cleavage rate above 90% yielding trans-splicing RNA with an unstructured 3′ terminal BD (FIG. 3a). Unstructured ends of antisense RNA have been reported to be associated with both fast target binding and degradation. […]
Molecule,more potent (trans-splicing) than 3ER_BD-struc1 [1],stronger trans-splicing compared with 3ER_ΔBD-opt-inv [1],more potent (trans-splicing) than 3ER_BD-struc2 ([1]; p=0.04),stronger trans-splicing compared with 3ER_BD-opt ([1]; p=0.04),stronger trans-splicing compared with 3ER_BD-opt-inv ([1]; p=0.04),ribozyme cleavage rate ([2]; indicated by the cycle difference),"cycle difference, cleaved RNA 3′ end (active versus inactive HHRz motif) ([2]; stem-loop primer rt-RT-PCR)"
"3ER_ΔBD-opt: parental 3′ exon replacement tsRNA construct; unstructured 50 base BD to AFP intron 5 with two mismatches, HSVtk (nucleic acid) DNA: GCTAGCACCTCTCTAAACCTAAATTAAATTTTCTTCTCTAAACCTCTTTCCTAGTTGGACTGACGTCACTCAGTCCTCCTCCTCAGC",4 fold,3 fold,6 fold,4 fold,30 fold,,
"p5ER_ΔBD-opt_HH: parental 5′ exon replacement tsRNA construct; unstructured mismatched BD to AFP intron 3, HSVtk, active hammerhead ribozyme (nucleic acid) DNA: GGTACCCCTCCTTCCTCCTCCTCCTCCTCCTCCTCCTATATACATATACACACACACACACACTCATACCACATTTCAGACATAAAT",,,,,,above 90%,6.2 cycle
